Results as given in US20220213165A1 (University of Texas, published 2022).
Square brackets hold non-standard residues; d marks the D form. Ends that are not written are not given here.

Experiments:
[1] = biological target: T1, recombinant human EphB4 (rhEphB4) (human, UniProt P54760 16-539, limits assumed); assay: SPR, peptide over immobilized EphB4
T1 construct: Bought protein; also called purified EphB4; immobilized EphB4
T1 sequence (looked up): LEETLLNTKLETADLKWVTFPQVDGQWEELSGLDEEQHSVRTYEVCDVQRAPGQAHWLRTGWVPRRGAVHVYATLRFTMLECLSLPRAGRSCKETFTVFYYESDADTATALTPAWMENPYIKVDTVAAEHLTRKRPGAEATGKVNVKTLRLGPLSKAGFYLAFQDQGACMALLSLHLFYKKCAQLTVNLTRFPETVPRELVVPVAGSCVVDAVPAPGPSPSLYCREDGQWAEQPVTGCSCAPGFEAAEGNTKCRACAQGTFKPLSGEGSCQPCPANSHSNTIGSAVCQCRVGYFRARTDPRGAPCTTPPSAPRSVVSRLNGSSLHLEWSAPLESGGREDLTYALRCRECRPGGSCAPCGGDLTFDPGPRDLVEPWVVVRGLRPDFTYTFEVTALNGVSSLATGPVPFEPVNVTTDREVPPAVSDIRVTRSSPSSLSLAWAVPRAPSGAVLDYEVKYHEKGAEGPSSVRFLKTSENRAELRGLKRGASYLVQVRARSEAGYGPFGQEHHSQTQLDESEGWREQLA

[2] = biological target: T1, recombinant human EphB4 (rhEphB4); assay: SPR (BIACore), peptide 1.6-800 nM injected over immobilized rhEphB4
Protocol: FIG. 10: BIACore sensorgrams of binding of truncated peptides to immobilized rhEphB4. Retention of a peptide on a sensor chip was indicated by a change in response units (RU) over the course of the 180-s injection interval followed by a 210-s washing interval. Peptides in concentrations of 1.6 nM to 800 nM were injected over the rhEphB4 sensor chip, and the magnitude of peptide binding to immobilized EphB4 was recorded.
(§1) Surface plasmon resonance (SPR) binding and competition assays. A stock solution of EphB4 in PBS (100 μg/mL) was diluted to 25 μg/mL with 10 mM sodium acetate buffer (pH 4.5) and immobilized to CM5 sensor chips using the amine coupling reaction according to manufacturer-provided procedures (BIACore). Briefly, the surfaces of the chips in flow cells (FC)-1 and FC-2 were activated by exposing chips to a mixture of 200 mM N-ethyl-N′-dimethylaminopropyl carbodiimide and 50 mM N-hydroxysuccinimide for 7 min. FC-1 was used as a reference surface and was directly deactivated by injecting 1 M ethanolamine at pH 8.5 for 7 min. FC-2 was injected with 25 μg/mL human or murine EphB4 followed by injection of 1 M ethanolamine to block the remaining activated ester groups on the surface. The chips were allowed to stabilize for at least 2 h in HBSEP running buffer before injection of test analytes.

[3] = biological target: T1, recombinant human EphB4 (rhEphB4); assay: as above; remark: listed apart in the source
Protocol: Peptides in concentrations of 1.6 nM to 800 nM were injected over the rhEphB4 sensor chips, and the magnitude of peptide binding to immobilized EphB4 in response units (RU) was recorded.
as §1

[4] = biological target: T1, recombinant human EphB4 (rhEphB4); assay: SPR, peptide over immobilized EphB4, 1:1 mass transfer interaction model
Protocol: as §1

[5] = biological target: T1, recombinant human EphB4 (rhEphB4); assay: SPR competition: BIDEN-AP (2-1000 nM) mixed with human EphB4 (30 nM), injected on EFNB2-Fc-coated CM5 chip
[6] = biological target: T2, EphB4 on the surface of A2780cp20 cells (human, UniProt P54760 16-987); assay: flow cytometry competition: A2780cp20 cells with EFNB2-Fc (20 nM) and BIDEN-AP (0-100 µM), PE-labeled anti-Fc detection
T2 construct: whole, on cells; also called EphB4 in human HeyA8 ovarian cancer cells; EphB4 in human ovarian cancer cells A2780cp20
T2 sequence (looked up): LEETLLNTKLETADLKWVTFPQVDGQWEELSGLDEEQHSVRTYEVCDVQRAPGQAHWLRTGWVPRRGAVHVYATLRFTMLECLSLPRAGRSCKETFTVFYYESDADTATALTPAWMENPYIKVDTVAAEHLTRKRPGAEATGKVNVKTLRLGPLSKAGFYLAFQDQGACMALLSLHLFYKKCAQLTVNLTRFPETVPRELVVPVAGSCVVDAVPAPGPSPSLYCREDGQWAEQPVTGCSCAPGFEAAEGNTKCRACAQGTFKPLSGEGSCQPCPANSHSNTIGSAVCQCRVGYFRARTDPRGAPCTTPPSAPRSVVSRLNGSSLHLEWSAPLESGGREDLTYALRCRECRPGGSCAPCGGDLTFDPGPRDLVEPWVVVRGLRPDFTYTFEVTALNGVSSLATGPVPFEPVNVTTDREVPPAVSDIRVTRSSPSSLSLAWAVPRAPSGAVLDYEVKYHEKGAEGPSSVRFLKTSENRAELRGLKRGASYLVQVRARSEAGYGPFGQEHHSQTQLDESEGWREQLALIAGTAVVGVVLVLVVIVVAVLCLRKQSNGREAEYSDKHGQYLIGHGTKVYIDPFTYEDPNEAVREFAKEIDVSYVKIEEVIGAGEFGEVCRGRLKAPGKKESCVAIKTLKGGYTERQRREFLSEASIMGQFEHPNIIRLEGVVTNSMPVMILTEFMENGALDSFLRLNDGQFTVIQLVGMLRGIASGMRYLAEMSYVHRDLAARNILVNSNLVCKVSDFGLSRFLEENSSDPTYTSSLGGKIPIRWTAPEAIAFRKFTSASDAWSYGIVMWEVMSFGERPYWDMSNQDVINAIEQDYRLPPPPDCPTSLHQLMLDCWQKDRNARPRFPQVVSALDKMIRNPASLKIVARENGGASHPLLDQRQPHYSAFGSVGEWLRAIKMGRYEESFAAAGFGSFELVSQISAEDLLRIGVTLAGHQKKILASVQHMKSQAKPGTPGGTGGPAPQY
Protocol: D-Tyr-P3 is highlighted in red. […] Vertical axes, in response units (RU), represent binding of the peptide to immobilized EphB4. […] Individual duplicates were performed in each condition. Data are presented as mean±SD.
Cell-based binding assay. […] Cells were analyzed in a Cellquest fluorocytometer (BD Bioscience, San Jose, Calif.). The experiments were run in duplicate.

B1: B4-008, TNYLFSPNGPIARA (peptide)
peptide: TNYLFSPNGPIARA
notes: also called TNYL-RAW truncated of C-terminus Trp-P15
- Kd [1]: 13 nM
- Kd [2]: 60 nM

B2: TNYLFSPNGPIAR (peptide)
peptide: TNYLFSPNGPIAR
notes: also called TNYL-RAW truncated of C-terminus Ala-Trp (P14-P15)
- Kd [2]: 192 nM

B3: NYLFSPNGPIARAW (peptide)
peptide: NYLFSPNGPIARAW
notes: also called TNYL-RAW truncated of N-terminus Thr-P1
- Kd [2]: 4.2 nM

B4: YLFSPNGPIARAW (peptide)
peptide: YLFSPNGPIARAW
notes: also called TNYL-RAW truncated of N-terminus Thr-Asn (P1-P2)
- Kd [2]: 5.2 nM

B5: T(dN)YLFSPNGPIARAW (peptide)
peptide: T[dN]YLFSPNGPIARAW
notes: also called TNYL-RAW with D-Asn at P2
- Kd [3]: 5 nM

B6: B4-005, TNYL(dF)SPNGPIARAW (peptide)
peptide: TNYL[dF]SPNGPIARAW
- Kd [1]: 75 nM
- Kd [3]: 841 nM

B7: B4-006, TNYLF(dS)PNGPIARAW (peptide)
peptide: TNYLF[dS]PNGPIARAW
- Kd [3]: 7700 nM

B8: TNYLFSPNGPIAR(dA)W (peptide)
peptide: TNYLFSPNGPIAR[dA]W
notes: also called TNYL-RAW with D-Ala at P14
- Kd [3]: 43 nM

B9: TNYLFSPNGPIARA(dW) (peptide)
peptide: TNYLFSPNGPIARA[dW]
notes: also called TNYL-RAW with D-Trp at P15
- Kd [3]: 8 nM

B10: B4-001, Cyclo(KTNYLFSPNGPIARAWD) (peptide)
peptide: KTNYLFSPNGPIARAWD
modifications: not fully specified (bridges); printed as Cyclo(KTNYLFSPNGPIARAWD); also: cyclic, ring-closing atoms not given here
- Kd [1]: 4.4 nM

B11: BIDEN-AP (bi-directional ephrin agonist peptide), TN(dY)LFSPNGPIARAW (peptide)
peptide: TN[dY]LFSPNGPIARAW
notes: Synthetic 15-mer made by solid phase synthesis on Rink resin; also called EphB4 agonist peptide
- Kd [4]: 7 nM
- IC50 [5]: 4 nM
- IC50 [6]: ~1000 nM

B12: B4-002, TNYLFSPNGPIA(dR)AW (peptide)
peptide: TNYLFSPNGPIARAW
modifications: D-Arg at position 13
- Kd [1]: 39 nM

B13: B4-004, TNY(dL)FSPNGPIARAW (peptide)
peptide: TNY[dL]FSPNGPIARAW
- Kd [1]: 65 nM

B14: TNYL-RAW (peptide)
peptide: TNYLFSPNGPIARAW
notes: also called EphB4 antagonist TNYL-RAW peptide
- Kd [1]: 3.1 nM
